{
  "source": "paper PMC9135449",
  "target": "T1, HP1043 (Helicobacter pylori 26695?) (UniProt O25684)",
  "T1 sequence": "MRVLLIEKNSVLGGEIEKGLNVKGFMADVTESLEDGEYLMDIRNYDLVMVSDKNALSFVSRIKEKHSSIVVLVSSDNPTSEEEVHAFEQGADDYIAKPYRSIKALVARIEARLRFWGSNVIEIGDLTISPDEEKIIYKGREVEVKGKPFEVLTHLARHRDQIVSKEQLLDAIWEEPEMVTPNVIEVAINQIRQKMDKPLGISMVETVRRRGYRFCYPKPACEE",
  "test": "EMSA",
  "conditions": "10 mM Tris-HCl pH 7.5, 40 mM KCl, 100 ug/ml BSA, 1 mM DTT, 5% glycerol, 25 ul, room temperature 30 min; 6% native PAGE in 45 mM Tris/45 mM orthoboric acid …",
  "data": [
    {"sequence": "GCCAAAACGCCTAAAGCCACAATAACCTTTTTCATCGTTTGTCTCCTCTACTTATCAAAATGATCTTAAAATGATACAATTACAAGTTTAAGTTTTGCTTAAAAAATGAAGTGAAAATAAGAGAAATAAATATGATTTTATACATTCATATCCCCTTTTGTGAAAATAAATGCGGTTATTGCGCTTTCAA (double strand) [Php1227 190-bp promoter probe]", "values": [
      {"measurement": "binding", "value": "binds"}
    ]}
  ]
}
